According to paper PMC4632715:

Biological target: FN3 monobody 2C12 (binder of MAP2K5), purified FLAG-tagged protein
Experiment: pull-down; 1 pmol each of four purified biotinylated targets spiked into HeLa cell lysate (10 µg), 10 pmol purified FLAG-tagged monobody, 2 h 4 °C; captured on anti-FLAG magnetic beads, RIPA washes; blot probed with streptavidin-IR dye

percent of input pulled down: 33%
B1: mitogen-activated protein kinase kinase 5 (MAP2K5), amino acids 5-108 (domain or fragment)
chain: ALGPFPAMENQVLVIRIKIPNSGAVDWTVHSGPQLLFRDVLDVIGQVLPEATTTAFEYEDEDGDRITVRSDEEMKAMLSYYYSTVMEQQVNGQLIEPLQIFPRA
modifications: biotin (Avitag, in vivo); a non-biotinylated form served as soluble competitor
